{
  "source": "patent US20100260754A1",
  "about": "(Eli Lilly, published 2010)",
  "binders": {"B1": {"name": "Antibody II (antibody, human IgG4 S228P, kappa, F234A L235A, V domains shown)", "VH": "EVQLVESGGGLVQPGGSLRLSCAASGFTFSSYTMSWVRQAPGKGLEWVATISGGGFGTYYPDSVKGRFTISRDNAKNSLYLQMNSLRAEDTAVYYCARPGYNNYYFDIWGQGTTVTVSS", "VL": "EIVLTQSPATLSLSPGERATLSCHASDSISNSLHWYQQKPGQAPRLLIYYARQSIQGIPARFSGSGSGTDFTLTISSLEPEDFAVYYCQQSESWPLHFGGGTKVEIKR", "notes": "also called human engineered DKK-1 antibody"}},
  "key": {"[1]": {"target": "T1, rabbit DKK-1 (SEQ ID NO: 32) (rabbit, UniProt O94907 32-265 (human entry), limits assumed)", "T1 chain": "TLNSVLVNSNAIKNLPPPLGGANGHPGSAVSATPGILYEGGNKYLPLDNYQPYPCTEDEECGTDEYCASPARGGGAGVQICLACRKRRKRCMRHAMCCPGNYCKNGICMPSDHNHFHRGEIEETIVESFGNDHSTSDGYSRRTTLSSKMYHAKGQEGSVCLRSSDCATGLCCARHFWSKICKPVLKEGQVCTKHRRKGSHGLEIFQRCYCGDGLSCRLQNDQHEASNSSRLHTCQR", "assay": "cell-based or functional assay"}, "[2]": {"target": "T2, rat Dkk-1 (SEQ ID NO: 31) (rat, UniProt O54908 32-272 (mouse entry), limits assumed)", "T2 chain": "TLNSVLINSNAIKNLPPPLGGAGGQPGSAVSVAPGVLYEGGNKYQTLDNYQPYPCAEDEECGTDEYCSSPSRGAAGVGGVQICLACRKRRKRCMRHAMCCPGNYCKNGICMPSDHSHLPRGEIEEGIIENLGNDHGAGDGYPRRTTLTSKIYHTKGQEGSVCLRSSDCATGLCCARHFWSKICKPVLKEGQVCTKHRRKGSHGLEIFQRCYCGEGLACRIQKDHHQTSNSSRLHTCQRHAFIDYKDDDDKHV", "assay": "cell-based or functional assay"}, "[3]": {"target": "T3, human DKK-1 (SEQ ID NO: 29) (human, UniProt O94907 32-266)", "T3 sequence": "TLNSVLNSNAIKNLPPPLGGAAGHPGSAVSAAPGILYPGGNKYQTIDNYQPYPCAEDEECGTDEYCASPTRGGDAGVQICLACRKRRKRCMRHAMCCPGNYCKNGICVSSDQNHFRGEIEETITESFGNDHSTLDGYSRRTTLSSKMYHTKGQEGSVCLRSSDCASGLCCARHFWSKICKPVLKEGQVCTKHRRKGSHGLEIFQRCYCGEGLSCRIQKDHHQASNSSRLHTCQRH", "assay": "cell-based or functional assay"}, "[4]": {"target": "T4, cynomolgus DKK-1 (SEQ ID NO: 30) (cynomolgus, UniProt O94907 32-265 (human entry), limits assumed)", "T4 chain": "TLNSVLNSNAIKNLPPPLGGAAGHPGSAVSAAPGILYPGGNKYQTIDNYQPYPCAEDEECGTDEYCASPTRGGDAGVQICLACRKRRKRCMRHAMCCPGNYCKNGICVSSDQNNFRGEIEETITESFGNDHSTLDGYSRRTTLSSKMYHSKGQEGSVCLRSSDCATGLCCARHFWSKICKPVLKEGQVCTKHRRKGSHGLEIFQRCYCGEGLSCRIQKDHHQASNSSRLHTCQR", "assay": "cell-based or functional assay"}, "[5]": {"target": "T1, rabbit DKK-1 (SEQ ID NO: 32)", "assay": "KinExA solution equilibrium, 37 C, His-tagged DKK-1", "experimental": "(§1) To establish a binding equilibrium, a constant concentration of antibody is mixed with varying concentrations of His-tagged DKK-1 (SEQ ID NO:29, SEQ ID NO:30, SEQ ID NO:31, SEQ ID NO:32, or SEQ ID NO:33) (1 nM-1 pM range) in PBS (pH 7.4)+1 mg/mL bovine serum albumin (“BSA”) or buffer alone and incubated for several days at 37° C. Two sets of binding reactions are set up, one set at low concentration of antibody (3 pM) and one set at high concentration of antibody (30 or 50 pM).\n(§2) After establishing equilibrium, a KinExA 3000 instrument (Sapidyne Inst. Inc.) is used to probe for the fraction of ‘free’ (unbound) antibody. Briefly, His-tagged DKK-1 is covalently coupled to NHS-activated Sepharose 4 Fast Flow beads (GE Healthcare) which are packed by the instrument to create a small column. The pre-equilibrated mixtures of antibody+His-tagged DKK-1 are passed over the beads to capture only free antibody. The amount of free antibody captured is proportional to the free concentration in the equilibrated samples, and is detected by injection of a fluorescently labeled secondary antibody. Data sets from low and high concentrations of antibody are fit globally using n-curve analysis in the KinExA software. This fitting returns a Kd value as well as the 95% confidence interval."}, "[6]": {"target": "T2, rat Dkk-1 (SEQ ID NO: 31)", "assay": "KinExA solution equilibrium, 37 C, His-tagged DKK-1", "experimental": "as §1, §2"}, "[7]": {"target": "T5, mouse DKK-1 (SEQ ID NO: 33) (mouse, UniProt O54908 32-272)", "T5 construct": "also called His-tagged DKK-1; Murine", "T5 sequence": "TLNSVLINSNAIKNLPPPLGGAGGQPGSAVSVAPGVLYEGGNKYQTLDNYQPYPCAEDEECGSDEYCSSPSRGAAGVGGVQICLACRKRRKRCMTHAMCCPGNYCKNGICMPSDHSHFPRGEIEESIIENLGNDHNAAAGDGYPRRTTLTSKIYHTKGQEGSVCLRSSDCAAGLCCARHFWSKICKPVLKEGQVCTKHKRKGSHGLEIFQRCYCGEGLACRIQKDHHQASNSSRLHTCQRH", "assay": "KinExA solution equilibrium, 37 C, His-tagged DKK-1", "experimental": "as §1, §2"}, "[8]": {"target": "T3, human DKK-1 (SEQ ID NO: 29)", "assay": "KinExA solution equilibrium, 37 C, His-tagged DKK-1", "experimental": "as §1, §2"}, "[9]": {"target": "T4, cynomolgus DKK-1 (SEQ ID NO: 30)", "assay": "KinExA solution equilibrium, 37 C, His-tagged DKK-1", "experimental": "as §1, §2"}},
  "data": [
    {"binder": "B1", "values": [
      {"measurement": "EC50, block of DKK-1-mediated inhibition of alkaline phosphatase in C2C12 cells", "setting": "[1]", "result": 6, "unit": "nM"},
      {"measurement": "EC50, block of DKK-1-mediated inhibition of alkaline phosphatase in C2C12 cells", "setting": "[2]", "result": 2.9, "unit": "nM"},
      {"measurement": "EC50, block of DKK-1-mediated inhibition of alkaline phosphatase in C2C12 cells", "setting": "[3]", "result": 9.8, "unit": "nM"},
      {"measurement": "EC50, block of DKK-1-mediated inhibition of alkaline phosphatase in C2C12 cells", "setting": "[4]", "result": 6.4, "unit": "nM"},
      {"measurement": "Kd", "setting": "[5]", "result": 0.017, "unit": "nM"},
      {"measurement": "Kd", "setting": "[6]", "result": 8.4, "unit": "pM"},
      {"measurement": "Kd", "setting": "[7]", "result": 7, "unit": "pM"},
      {"measurement": "Kd", "setting": "[8]", "result": 3.3, "unit": "pM"},
      {"measurement": "Kd", "setting": "[9]", "result": 0.014, "unit": "nM"}
    ]}
  ]
}
